Source: PMC8556260

Experiments:
[1] = molecular target: PIR91 ribosome-bound nascent chain (full-length PIR RNC, wild type) (UniProt O88900); test: cross-linking; titration of resuspended PIR91 RNCs with DnaK/DnaJ/GrpE (5:1:2, up to 50/10/25 µM), ADP, 50 mM KCl, 5 mM Mg2+, then EDC 80 mM, 30 min, 30 °C; fraction cross-linked to DnaK fitted to a two-state model; apparent
[2] = molecular target: PIR91 ribosome-bound nascent chain (full-length PIR RNC, wild type) (UniProt O88900); test: cross-linking; titration of resuspended PIR91 RNCs with TF (up to 40 µM), 10 min on ice, then EDC 80 mM, 30 min, 30 °C; standard resuspension buffer, 10 mM Mg(OAc)2, pH 7.0; fraction cross-linked fitted to a two-state model; apparent

Substance | Kd [1] [µM] | Kd [2] [µM]
E. coli Hsp70 (DnaK), purified, ADP-bound, added as K/J/E mixture (from UniProt P0A6Y8 1-638) (natural protein) | 109 | 
Trigger factor (TF), purified wild type (from UniProt P0A850 1-432) (natural protein) |  | 3.8
